Test results: the domain aggregation screens of Martell et al. (2025)

Experiment: soluble fraction after stress (log2 fold change); higher = more stays soluble; pooled small domains, quantitative proteomics
Conditions: stress: pH 4
How it was run: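 Small protein domains from pooled custom libraries were exposed to pH 4, then quantified with high-throughput quantitative proteomics. The fold change in how much of each domain remains soluble is read as aggregation propensity. It is given as log2, with higher values meaning more stayed soluble.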

Sequence	soluble fraction (log2)
HMPLKLIDVYLGRHGKKRYDVFKETGLSQQTLASANGKPAAALTGRILQAIGRTVGETPGRVLDEMLMIEQ	0.0887
HMEIYELTDQEQRVLEFIGEGMTNREIAKNMFLAEKTVKNYVSSLLRKLGLERRTQAAAMAVRLSV	-0.988
HMEQMSPYPNPSKGKIQFHNQEPMDIKVFNSLGQIVFEQRILSRAILDLSRLSPGQYIVQAGEQKNIWIK	-0.293
HMYEVDGLGIRIAQLRKKQDLTQEAFARTLGVSPQAVSKWETGIGYPDITLLPQIAKELGVSIDQLFGRN	0.0751
HMTIAEGLIFRFTEPFKPIDQYTYYIMGDNKVEQIPNFKTLEVMLAQRNQNYLSVRVIEKSQLDDILKEF	-1.73
HMENNNIAFSKFLEEVDSGRVVQVEIQGNNISGTLSDGSKFKTYSPNYPDLVSKLSEKNVSIIASPV	0.166
HMPRSLGADLRAIRKGRRLTLTDMAEALDRSVGWVSQVERDISTPSISDLRRMAEILDVPVSLLFG	-1.59
HMDDATTQLADRLLDLRRKAGYSQEQLADLLGVSRQAISKWEGAQGRPEVDNVVKLAQIYRVSTDFILTGS	-0.656
HMERVIYLLNGREVPAAEIRAAEPEALTVDRFYSSENLPAEYRDRNPELVVAFTAEEPLRHY	-0.559
HMNQDMINFDKLSVRLKNVLIENNLKTVDSLLNYPAEEFEYLTNLGEKTLQELLTYRNELAASNNIQ	-1.17
HMTIEEMAIENINFSTQLLYKAMKYNGVNTVGDLLEKARSKKDLLTMAYIGNKEAEEIIEKLSELGITI	-1.84
HMEEIQLILAKNLKSIREKEKLSLEKVSQLTGVSKTMIGQIERGDSSPTLTTIWKIANGLKVSFTSLINNP	0.182
HMQVSDAAQLAEVVKTVLAENPAAVGDYRKGKKAAIGFLLGQVMRHMRGTANPAVARQLLEQALEDE	0.231
HMSFRYLHVKRQLMSLIGTMNAHERLPSRTDLSETFQVARTTIERAISELIGEGWLYARDGSGTYVAER	-0.919
HMETTEELISKTVPISYADMAALTGILDGVKSARGDIQVDDRTSTIIIHDIQSSIDEMMRLIKILD	-1.13
HMETLSVRERMTSIISLLNKHEDIEFSKLFNISEGRLGVVVTFLALLELVKESLVDVIQNQPMSKLYIGKK	-0.376
HMLDKRSHAKKVLDAIEAVILGRATNDQLAYTINGRSLQKTPLPDLLRLRSQYQAEYQRELRAERIRKG	≥ 0.43
HMRIETLESLANRLAYKAYRTGRKVELEPMNPFERRVIHTALQNSKYATTESEGEDMNRHIVIVPKEGG	0.247
HMRREKVLIKLAENLASKVLRTKKSIELEPMTPYERKVIHTTIENISGVKSWSEGENLQRHLIVALDE	0.188
HMHDWDITTAAKPEKIFELFSDIPVLETGLKHGTVTLLIDHEPYEVTTFRVDGNYTDGRHPDSVAFT	-0.366
HMRSAKLPYSEFLKLVDTDKVNDVSIVGRTISGHLDDGSKFSTYTPPNDPNIIEKLSSHNVIINSAPE	0.337
HMTEDQDWAIFKQKLKAQTEIDLDLYKEPQMKHRIKNLIQNAGFDSYVQYFDYVYLNQDRLAAFLENLTV	-1.15
HMEQQEFIVPHDSEGQRLDLFLVSVLGTHSRSQIRKLIVNGHVKLENRAPRPNLPVRAGESVVVSMPEPT	-0.315
HMSNNILEISSNKKNMKIQENKNLVESYYSKTENLYSFKLVFKNKRDLDQFLKEVYEDDSTINYKTSS	-0.524
HMNSLFPLSLKYLREQANITQAELAQKLDVTQQAVGRWERGQTSPDYETLKRLSVLFNVSVDYLLGV	-0.359
HMAITLEQFLSVNPHIRNNLYGNAVELVKDKDFSVLSDKLKASSKWANEPSLYKILSHYDEIIS	0.207
HMFAAIFADDSGFTTRSKRFGPYVEEIAADWQAVKQLSDEDAKQALVPLVKKIELALSTLQQFVSSV	-0.405
HMKSNIGENIRQLREKREMSVERVARMLEVKPATVIGWESGRELPEPAELGLLAKLFDVTVEELN	-0.0738

Sequence	soluble fraction (log2)
HMDELVYVPNITGKTVEEARTELQKRDLGLNIAGHQFSDEFGKGRIISQDPAAGSRLKVNRSISVIVSSGQ	0.00524
HMLELLSMEDIQRTRVGDLIATVRQVDRQHALVLDRDPETGKPAVRGIFSLSQISLRLGLNI	-0.733
HMNEVRINTAHIEHKYLGEVKVLDIQEMRNARGRDADPLAFLAIRFWSPRGVLVRVKDSRDATPYWLIS	-0.227
HMQNPDHLLALAAAAQAAIELGRPDEAEAYYRHLVEVYGVEMASQKPEYLDHSGITNDLRNVAEGFLVG	-1.32
HMSRQREWIYDYIQSHPDRHMSVEEIYEGLKAENREVSVATVYRNLKILQDENRIASLMLESGKQVFDK	-0.0969
HMTQFSLTTEEINVLKKSYSEFTDSDKELFNKILEKYNKFKNESSNDIAFEAKILEKLQEIENFYE	-1.45
HMRQQAFWALVPEERDVLDETGAPLFRIGPTAWALVIEDRGEVFVVRDEDGRVGYLHEVDGVTR	-1.94
HMANWRVGQTINALVSDRMPSGGLLLTVGRQSFVTTRDIPVQPGARIMLEVQQVEPKLVLRLVSA	-0.236
HMDKEVMEAVLRILYDDDFNPDQRDAILYFFVQELDQRTISEITGAKIGTVKKRIHDGLKKLRQKLAKEDL	-1.03
HMPTEPTARELEVTTLLAQGLSNREIAGALFISEHTVRNHLGHVFSKLGVSSRTQAVVRAGQLGWLR	-0.798
HMKPEDIALLEEIRDLLKEKKSVIVNLEYVNKDVARRIVDFISGGVFALNGHIQKVSNSIFLVAPMN	-0.26
HMTDYKTNLQEFLQQDGEVEIEYKLLAEVGPSHARQFEVDVMMGDRVLGSGVGRNKKAAEQAAAKVALSKL	-0.375
HMGTKVGAPLPGTITEVKVKVGDTVKAGDAVIILEAMKMQNNIEAEVSGTVSSVLVKEGDTVMEGDALITI	-1.18
HMFKINQKVKLIAPLPYLKTSENMPMLRPPDLVAIDEIGEVLSLKSPETVEVRFRRGSFLIDIDKLEKVD	-0.996
HMTVSGNIAGDYKDYLPQKTDVINGMTVTYRMVDDAVYLASWKHAGQNHVFLFNDPVSVERAREMI	-0.965
HMETLSKVGSTGSEVRQIQTKLKNWGYFSDKVDGIYGEKTRAAVVWFQKKNGLTADGIAGPATLKAMGIYT	≥ 0.43
HMLDKEDNANAGKTLLERELSRAHLSDVEHRELAQRLHLASEQELYIKIGSGDLSIIQALNRAKEFKDT	-0.8
HMNALTEAESKLLERMNKAGIHAEITTKKAAGILQRSENGARTVLNSLVKKGYLTVETNKAPYIYHLH	0.301
HMSIMNLSEKIVVLRKSNGMSQEELAEKLYVSRQAVSRWEMGTAVPDSTNILQLGKLFHVTTDYLLNDEYE	-0.232
HMRPAAELGLPHAPKHFIQYLTEDDRPQVLKDVDYEGGMGVSIGRLREDSIFDWKFVGLAHNTL	0.0686
HMSILSIGLERGMKKGVAWGIAKSILDILEETGPVSEKTREMIVTETDAERLSAWVKKAARSNSEEDFLSK	-1.21
HMSTVEKDSELGGNFRIASYPTGKGQISEAIRSMIVRAKQVGVNIRLNTEATEEPLRALAPNAVILATG	0.18
HMTTTTTYITNTDAVNIRQQATTSSTSLGKLAKNTILSVKKKSGDWYQITYKKQTAYIHASLVDKKTAKVT	≥ 0.43
HMTTAASIGRLVRDARKQRGLTQHELASLLSTSQSAIHRIESGNQNLSLEMINRIAQALESPLIVPGG	-0.343
HMYSDIERAMTNAPEQFANKQAVLDFLNKNRIKKSEVDDYRIASLLKLYDDASPISKTEIISQVRT	-0.0708
HMLGIGANVQKIAQERKISLKELSRRAGIPYTTIYNMVKRDSSRVSPENLQKLADALGVEIGKLYG	≥ 0.43
HMPKHFIDFSEGEVVSITDGPFKGFDGAISEIDNQKGKVKVMVSMFGRDTSVELDALQVKKV	-0.364
